Values belong to the binder of their own block, whether it stands above or below them. Where no end group is shown, it is not given here.
Columns and labels:
[1] = target: T1, PD-1 on the surface of cells (Jurkat T cells stimulated with PMA and ionomycin; iCIKs) (human, UniProt Q15116 25-288); assay: flow cytometry blocking assay: peptide mixed with recombinant human PD-L1, PD-L1 binding to PD-1-expressing stimulated Jurkat T cells read with APC streptavidin
T1 construct: whole, on cells; Endogenous PD-1 of human cells; also called PD-1 on the surface of Jurkat T cells; PD-1-expressing Jurkat T cells
T1 sequence (Q15116 25-288): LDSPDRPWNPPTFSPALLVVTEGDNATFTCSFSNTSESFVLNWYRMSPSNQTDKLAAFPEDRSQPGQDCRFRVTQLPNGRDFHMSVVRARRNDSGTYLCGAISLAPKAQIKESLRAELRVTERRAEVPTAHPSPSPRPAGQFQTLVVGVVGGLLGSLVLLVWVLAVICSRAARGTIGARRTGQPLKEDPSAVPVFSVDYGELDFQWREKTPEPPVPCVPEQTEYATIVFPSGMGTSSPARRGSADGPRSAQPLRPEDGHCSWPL
Method: (§1) The Jurkat T cells were divided into two groups, an experimental group and a control group, wherein in the experimental group, 50 ng/ml of Phorbol 12-myristate 13-acetate (PAM) and 1 ug/ml of Ionomycin Calcium Salt (Ionomycin) were used to stimulate the cells, and in the control group, Jurkat T cells were unstimulated. The cells (5×10⁵) were collected in each tube, and washed once with FACS buffer (PBS with 2% BSA). […] FACS buffer was used for washing the cells three times, and 0.12 ug/ml of APC Streptavidin (405207, Biolegend) was added to each tube and the incubation was performed for 1 hour at 4° C., and then the cells were washed three times with FACS buffer again, and 500 μl of PBS was added to resuspend the cells, which were further transferred to flow tubes and analyzed by flow cytometry.

[2] = target: T2, Recombinant Human PD-1 protein (PD1-H5221, Acro Biosystems) (human, UniProt Q15116 25-167); assay: SPR (Biacore T100), recombinant human PD-1 coupled to a CM5 chip, peptide as analyte at 0.03125-2 µM
T2 construct: Bought reagent, amine-coupled to a CM5 chip for SPR
T2 sequence (Q15116 25-167 limits assumed): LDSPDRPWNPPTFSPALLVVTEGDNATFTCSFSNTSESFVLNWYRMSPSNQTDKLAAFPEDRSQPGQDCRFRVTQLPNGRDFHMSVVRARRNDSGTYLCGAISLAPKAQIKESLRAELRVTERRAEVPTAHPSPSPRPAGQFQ
Method: (§2) The affinity of the peptides was tested with Biocore T100 through surface plasmon resonance (SPR) technique. […] Finally, the affinities (Kd-value) of the peptides were calculated by fitting curves in the sensor diagram in Biacore software.

[3] = target: T2, Recombinant Human PD-1 protein …; assay: SPR (Biacore T100), recombinant human PD-1 coupled to CM5 chip, peptide as analyte
Method: as §2

[4] = target: T1, PD-1 on the surface of cells (Jurkat T …); assay: flow cytometry blocking assay: peptide mixed with recombinant human PD-L1, PD-L1 binding to PD-1-expressing stimulated Jurkat T cells read with APC streptavidin; nABP486 also binds PD-L1 itself (Figure 2D)
Method: as §1

[5] = target: T3, Recombinant Human PD-L1 protein (PD1-H82F3, Acro Biosystems) (human, UniProt Q9NZQ7 19-238); assay: SPR (Biacore T100), recombinant human PD-L1 coupled to CM5 chip, peptide as analyte
T3 construct: Bought reagent
T3 sequence (Q9NZQ7 19-238 limits assumed): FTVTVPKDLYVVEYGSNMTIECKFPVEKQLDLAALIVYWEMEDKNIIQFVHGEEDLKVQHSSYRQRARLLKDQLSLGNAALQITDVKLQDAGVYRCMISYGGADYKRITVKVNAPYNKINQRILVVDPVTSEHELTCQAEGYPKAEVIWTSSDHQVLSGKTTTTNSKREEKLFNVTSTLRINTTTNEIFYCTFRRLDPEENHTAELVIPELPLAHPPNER
Method: as §2

[6] = target: T3, Recombinant Human PD-L1 protein …; assay: SPR (Biacore T100), recombinant human PD-L1 coupled to a CM5 chip, peptide as analyte at 0.03125-2 µM
Method: as §2

[7] = target: T2, Recombinant Human PD-1 protein …; assay: SPR (Biacore T100), recombinant human PD-1 coupled to a CM5 chip, peptide as analyte at 0.3125-20 µM
Method: as §2

IC50 [1]: 3420 nM
koff [2]: 0.00293 s⁻¹
kon [2]: 39000 M⁻¹ s⁻¹
Kd [3]: 75.1 nM
B1: nABP386 (peptide)
chain 1: SRLKEIANSPTQFWRMVARNTLGNHAKQSLNIEHA
chain 2: SHHHRL
modifications: also: bond at chain A 27 at chain B 6 to a chain's C-terminus
notes: Branched synthetic peptide (Fmoc solid-phase synthesis)

IC50 [4]: 2580 nM
Kd [5]: 54.2 nM
koff [2]: 0.00589 s⁻¹
kon [2]: 496000 M⁻¹ s⁻¹
Kd [3]: 11.9 nM
Kd [6]: 52.4 nM
koff [6]: 0.00204 s⁻¹
kon [6]: 38900 M⁻¹ s⁻¹
B2: nABP486 (peptide)
chain 1: SHHHRLKLKEIANSPTQFWRMVARNTLGNGAKQSLNIEHA
chain 2: SHHHRL
modifications: also: lactam at chain A 7 at chain B 6 to a chain's C-terminus
notes: as for B1

Kd [7]: 11800 nM
IC50 [1]: 9610 nM
Binder: SRLKEIANSPTQFWRMVARNTLGGAKQSLNIEHARL (not fully specified, also called PD-1-nABP284) [nABP284]

Kd [5]: 16.7 nM
koff [2]: 0.000453 s⁻¹
kon [2]: 77600 M⁻¹ s⁻¹
Kd [3]: 5.84 nM
koff [6]: 0.000486 s⁻¹
kon [6]: 29000 M⁻¹ s⁻¹
B3: nABP786 (peptide)
chain 1: SHHHRLKLKEIANCSPTQFKC
chain 2: SHHHRL
modifications: cysteine pairing not given here; also: lactam at chain A 7 at chain B 6 to a chain's C-terminus

Source: patent US20240209043A1 (ORAL SUBSIDIARY SUN YAT SEN UNIVERSITY HOSPITAL, published 2024)
